Laboratory results reported in US20200377587A1 (NANTBIO, published 2020).
Several values for one entry are separate records, joined by “and”; a condition that tells them apart may be missing. Equal values may be shown once.

T1: IL-8 (UniProt P10145 28-99, limits assumed)
T1 construct: also called Interleukin-8; immobilized IL-8
T1 sequence (looked up): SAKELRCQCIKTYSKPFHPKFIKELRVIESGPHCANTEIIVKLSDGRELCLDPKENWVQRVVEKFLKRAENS


Assays:
IL-8 [1] = biological target: T1, IL-8; experiment: SPR, immobilized IL-8, scFv, 25 C
Procedure: (§1) Here, scFv and corresponding humanized IgG₁ were prepared using the sequences as indicated, and KD was determined using SPR with immobilized IL-8 as […] on the chip surface. All values are expressed as nanoM values at temperatures as indicated.

IL-8 [2] = biological target: T1, IL-8; experiment: SPR, lower panel; no pH label is printed on this sheet (the lower panel of Fig.4A is pH6.0; the text names pH 7.4 and pH 6.0)
Procedure: (§2) In yet another set of experiments, the inventors used affinity maturation (here: random mutagenesis of CDR regions in VH and VL chains and mRNA display selection) of one previously identified IL-8 binder (here: 43-12, sequence in Table 1), and SPR analysis was performed on selected mutant forms using two different pH conditions, pH 7.4 and pH 6.0.

IL-8 [3] = biological target: T1, IL-8; experiment: SPR, upper panel; no pH label is printed on this sheet (the upper panel of Fig.4A is pH7.4; the text names pH 7.4 and pH 6.0)
Procedure: as §2

IL-8 [4] = biological target: T1, IL-8; experiment: SPR, IgG1, 37 C, pH 7.4, preliminary KD
Text: (§3) The inventors contemplate that the binding affinities of the scFv, recombinant antibody or fragment thereof, to IL-8 may be different due to the structural differences even if the scFv, recombinant antibody or fragment thereof, are generated using the same amino acid sequences of VH segment and/or VL segments. For example, Table 2 provides different affinities (measured in KD value) of scFv and recombinant antibody (IgG1) of several clones. Clone 49-31 is a scFv or a recombinant antibody (IgG1) generated using amino acid sequences encoding VH segment (SEQ ID No. 1) and VL segment (SEQ ID No. 16), Clone 43-2 is a scFv or a recombinant antibody (IgG1) generated using amino acid sequences encoding VH segment (SEQ ID No. 8) and VL segment (SEQ ID No. 23), and Clone 43-12 is a scFv or a recombinant antibody (IgG1) generated using amino acid sequences encoding VH segment (SEQ ID No.10) and VL segment (SEQ ID No. 25). Preliminary KD values are determined by surface plasmon resonance measurement, and highest and lowest values are shown to estimate the range of the affinities to IL-8.

IL-8 [5] = biological target: T1, IL-8; experiment: SPR, immobilized IL-8, IgG1, 25 C
Procedure: as §1

IL-8 [6] = biological target: T1, IL-8; experiment: SPR, IgG1, 25 C, pH 6.0, preliminary KD, lowest and highest value
Text: as §3

IL-8 [7] = biological target: T1, IL-8; experiment: SPR, immobilized IL-8, IgG, 37 C
Procedure: as §1

IL-8 [8] = biological target: T1, IL-8; experiment: SPR, IgG1, 25 C, pH 7.4, preliminary KD, lowest and highest value
Text: as §3

IL-8 [9] = biological target: T1, IL-8; experiment: SPR, IgG1, 37 C, pH 7.4, preliminary KD, lowest and highest value
Text: as §3

IL-8 [10] = biological target: T1, IL-8; experiment: SPR, IgG1, 25 C, pH 7.4, preliminary KD
Text: as §3

IL-8 [11] = biological target: T1, IL-8; experiment: SPR, scFv, preliminary KD
Text: as §3

IL-8 [12] = biological target: T1, IL-8; experiment: SPR, IgG1, 37 C, pH 7.4, preliminary KD; IgG1, 37 C, pH 7.4
Text: as §3

IL-8 [13] = biological target: T1, IL-8; experiment: SPR, IgG1, 25 C, pH 7.4, preliminary KD, lowest and highest value; lowest value of the range; IgG1, 25 C, pH 7.4
Text: as §3

Row | Binder | Kd (IL-8 [1]) [nM] | Kd (IL-8 [5]) [nM] | Kd (IL-8 [7]) [nM] | further results
1 | scFv 49-7 (scFv, V domains shown, also called Clone 49-7) VH: EVQLVESGGGLVQPGGSLRLSCAASGFTFSSYAMHWVRQAPGKGLEWVSAISNSGASTYYADSVKGRFTISRDNSKNTLYLQMNSLRAENTAVYYCARDLMRWWIDGFDVWGQGTLVTVSS VL: not shown | 0.087 to 0.17 |  |  | 
2 | scFv 49-18 (scFv, V domains shown, also called Clone 49-18) VH: EVQLVESGGGLVQPGGSLRLSCAASGFTFSSYAMNWVRQAPGKGLEWVSAISWSGGNTYYADSVKGRFTISRDNSKNTLYLQMNSLRAEDTAVYYCARDLYAGYWGFDVWGQGTLVTVSS VL: not shown | 0.41 to 0.89 |  |  | 
3 | scFv 43-12b (scFv, V domains shown, Derived from 43-12 by random mutagenesis of the CDRs and mRNA display) VH: EVQLVESGGGLVQPGGSLRLSCAASGFTFSSYLMHWVRQAPGKGLEWVSAISGSGGITYYADSVKGRFTISRDNSKNTLYLQMNSLRAEDTAVYYCARDREGWFWHSYGFDVWGQGTLVTVSS VL: not shown |  |  |  | Kd (IL-8 [2]): 2.3 nM; koff (IL-8 [2]): 0.00076 s⁻¹; kon (IL-8 [2]): 330000 M⁻¹ s⁻¹; Kd (IL-8 [3]): 2 nM; koff (IL-8 [3]): 0.0002 s⁻¹; kon (IL-8 [3]): 100000 M⁻¹ s⁻¹
4 | recombinant antibody (IgG1) 43-12 (antibody, V domains shown, IgG1 ('corresponding humanized IgG1'); also called 43-12 IgG1; Clone 43-12) VH: EVQLVESGGGLVQPGGSLRLSCAASGFTFSSYLMHWVRQAPGKGLEWVSAISGSGGSTYYADSVKGRFTISRDNSKNTLYLQMNSLRAEDTAVYYCARDREGWFWHSYGFDVWGQGTLVTVSS VL: not shown |  | 0.43 to 0.78 | 0.31 | Kd (IL-8 [4]): 0.31 nM; Kd (IL-8 [6]): 3.46 to 6.7 nM; Kd (IL-8 [8]): 0.43 to 0.78 nM
5 | scFv 49-32 (scFv, V domains shown, also called Clone 49-32) VH: EVQLVESGGGLVQPGGSLRLSCAASGFTFSSYAMHWVRQAPGKGLEWVSAIYGNGGSTYYADSVKGRFTISRDNSKNTLYLQMNSLRAEDTAVYYCARDLYTIEPREAFDVWGQGTLVTVSS VL: not shown | 0.21 to 0.24 |  |  | 
6 | IgG1 49-32 (antibody, V domains shown, also called 49-32 IgG1; Clone 49-32) VH: EVQLVESGGGLVQPGGSLRLSCAASGFTFSSYAMHWVRQAPGKGLEWVSAIYGNGGSTYYADSVKGRFTISRDNSKNTLYLQMNSLRAEDTAVYYCARDLYTIEPREAFDVWGQGTLVTVSS VL: not shown |  | 0.77 to 0.87 | 0.33 to 0.36 | 
7 | scFv 49-3 (scFv, V domains shown, also called Clone 49-3) VH: EVQLVESGGGLVQPGGSLRLSCAASGFTFSSYAMTWVRQAPGKGLEWVSVISGSGGSTRYADSVKGRFTISRDNSKNTLYLQMNSLRAEDTAVYYCARDRKFPYVQFFRNGFDVWGQGTLVTVSS VL: not shown | 1.26 |  |  | 
8 | IgG1 49-3 (antibody, V domains shown, also called 49-3 IgG1; Clone 49-3) VH: EVQLVESGGGLVQPGGSLRLSCAASGFTFSSYAMTWVRQAPGKGLEWVSVISGSGGSTRYADSVKGRFTISRDNSKNTLYLQMNSLRAEDTAVYYCARDRKFPYVQFFRNGFDVWGQGTLVTVSS VL: not shown |  | 2.14 | 9.19 | 
9 | recombinant antibody (IgG1) 43-2 (antibody, V domains shown, IgG1 ('corresponding humanized IgG1'); also called 43-2 IgG1; Clone 43-2) VH: EVQLVESGGGLVQPGGSLRLSCAASGFTFSSYAMHWVRQAPGKGLEWVSAISGSGGKTYYADSVKGRFTISRDNSKNTLYLQMNSLRAEDTAVYYCARDREAPFYTVYVTGFDVWGQGTLVTVSS VL: DIQMTQSPSSLSASVGDRVTITCQASQDISNYLNWYQQKPGKAPKLLIYDASNLETGVPSRFSGSGSGTDFTFTISSLQPEDIATYYCQQDADTPLTFGQGTKVEIK |  | 0.79 | 0.72 to 0.89 | Kd (IL-8 [9]): 0.72 nM and 0.89 nM; Kd (IL-8 [10]): 0.79 nM
10 | scFv 49-34 (scFv, V domains shown, also called Clone 49-34) VH: EVQLVESGGGLVQPGGSLRLSCAASGFTLGSYAMHWVRQAPGKGLEWVSAISGSGGSTYYADSVKGRFTISRDNSKNTLYLQMNSLRAEDTAVYYCARDRDTVSIEVGFDVWGQGTLVTVSS VL: DIQMTQSPSSLSASVGDRVTITCQASQDISNYLNWYQQKPGKAPKLLIYDASNLETGVPSRFSGSGSGTDFTFTISSLQPEDIATYYCQQDSAFPLTFGQGTKVEIK | 0.44 to 0.62 |  |  | 
11 | scFv 43-2 (scFv, V domains shown, also called Clone 43-2) VH: EVQLVESGGGLVQPGGSLRLSCAASGFTFSSYAMHWVRQAPGKGLEWVSAISGSGGKTYYADSVKGRFTISRDNSKNTLYLQMNSLRAEDTAVYYCARDREAPFYTVYVTGFDVWGQGTLVTVSS VL: DIQMTQSPSSLSASVGDRVTITCQASQDISNYLNWYQQKPGKAPKLLIYDASNLETGVPSRFSGSGSGTDFTFTISSLQPEDIATYYCQQDADTPLTFGQGTKVEIK | 1.41 |  |  | Kd (IL-8 [11]): 1.41 nM
12 | recombinant antibody (IgG1) 49-31 (antibody, V domains shown, IgG1 ('corresponding humanized IgG1'); also called 49-31 IgG1; Clone 49-31) VH: EVQLVESGGGLVQPGGSLRLSCAASGFTFSSYYMHWVRQAPGKGLEWVSAISGGGSSTYYADSVKGRFTISRDNSKNTLYLQMNSLRAEDTAVYYCARDLRIFEGRDAGFDVWGQGTLVTVS VL: DIQMTQSPSSLSASVGDRVTITCQASQDISNYLNWYQQKPGKAPKLLIYDASNLETGVPSRFSGSGSGTDFTFTISSLQPEDIATYYCQQDDDVPWTFGQGTKVEIK |  | 0.099 to 0.25 | 0.12 | Kd (IL-8 [12]): 0.117 nM; Kd (IL-8 [13]): 0.009 to 0.25 nM; Kd (IL-8 [6]): 0.21 to 0.22 nM
13 | scFv 49-22 (scFv, V domains shown, also called Clone 49-22) VH: EVQLVESGGGLVQPGGSLRLSCAASGFTFTSYAMHWVRQAPGKGLEWVSAISGSGGSTYYADSVKGRFTISRDNSKNTLYLQMNSLRAEDTAVYYCARDLDMFVPFWPAFDVWGQGTLVTVSS VL: DIQMTQSPSSLSASVGDRVTITCQASQDISNYLNWYQQKPGKAPKLLIYDASNLETGVPSRFSGSGSGTDFTFTISSLQPEDIATYYCQQASDTPLTFGQGTKVEIK | 0.11 to 0.114 |  |  | 
